According to the supplement of paper PMC12764529:
± gives the half width of the 95% confidence interval.

What was measured:
[1] = folding stability dG unfold from trypsin proteolysis; higher = more stable
Procedure, shortened: (§1)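 Digests were run with trypsin and chymotrypsin at 11 concentrations in threefold dilutions, plus a no-protease condition, on designed mini-proteins in a PA-tagged cDNA display construct. The mini-proteins were under 80 residues, had no cysteine, and were kept only when AlphaFold2 dimer inter-PAE was above 15. After sequencing, Bayesian fitting of the counts gave K50, from which unfolding free energy was derived against a sequence-predicted unfolded-state K50 and a shared folded-state K50, per protease or combined.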

[2] = folding stability dG unfold (combined trypsin and chymotrypsin); higher = more stable
Procedure, shortened: as §1

[3] = folding stability dG unfold from chymotrypsin proteolysis; higher = more stable
Procedure, shortened: as §1

| Sequence | folding stability dG unfold [1] [kcal/mol] | folding stability dG unfold [2] [kcal/mol] | folding stability dG unfold [3] [kcal/mol] |
| --- | --- | --- | --- |
| SAGSKEALLSDPSFEPVEVEIHLEIEVPGVTPEEAEAIAKELEKEITEELKKKGIKNVKVTVTIRYVERSAG [r5_431_JUSTAS] | 1.71 ± 0.044 | 2.24 ± 0.071 | 2.49 ± 0.057 |
| SAGGMPEVKYLEITITVEVPTEEEALEKLKEELKKLFPNAEIVSVEVEVEEEDGKLTVTVKITVKLPSAGGS [r8_120_TrROS_Hall] | 3.66 ± 0.22 | 3.35 ± 0.16 | 2.48 ± 0.11 |
| SAGGSAGGWIEINILVPLKPGQTPSELADEIAQEFQNQHGWEIKIDDVYPTDNYVWHKIEITPPSAGGSAGG [r6_639_TrROS] | 0.864 ± 0.031 | 1.29 ± 0.083 | 1.49 ± 0.055 |
| SDNFQPDMTFPVTEIGDDKVTMKYNGKPYYIPTSKITSPNVTVKITDGTVSEVSSPSPSPLPPENIKKLSSA [r9_842_JUSTAS] | -0.705 ± 0.24 | -0.263 ± 0.42 | -0.293 ± 0.35 |
| SAGGSAGGSAMTFFVAVVKTETRVLPDGSLETRSSIEVKPVPAIPAEDLIKKLGLPLEDIASAGGSAGGSAG [r3_338_TrMRF] | 2.13 ± 0.041 | 2.61 ± 0.14 | 3.14 ± 0.053 |
| SAGGMKPGESSTVPPVVERTTSPDSLGNPRYTVTRVTEITVTYFPDSINVTVTTETTVVSTATPGLLSAGGS [r8_70_JUSTAS] | 2.2 ± 0.059 | 1.78 ± 0.07 | 1.15 ± 0.031 |
| SAGGSAGGSAGGMLTIVEVLSKDPEKPVYTVKVKFPDGSEKTLEVPPELLSNPEKEIVLESAGGSAGGSAGG [r7_117_JUSTAS] | 1.23 ± 0.072 | 1.47 ± 0.12 | 1.44 ± 0.07 |
| SAGGSAGGSAGGLTFRLPDGTRVRVRVELNEDGELRITVEVEPLPPPPPKVEFYSEEELKSAGGSAGGSAGG [r7_660_TrROS_Hall] | 2.72 ± 0.076 | 2.92 ± 0.12 | 3.06 ± 0.08 |
| SAGGSAGGSAGGSPEFKIVSVEYDPETGLVTLEIEREDGSTLRFVFDKDGKLVRVEELPSAGGSAGGSAGGS [r4_259_TrROS_Hall] | 3.31 ± 0.22 | 4.44 ± 0.19 | 4.56 ± 0.15 |
| SAGGAKIKFDIEPTNNTIRVKIEIWLPGGPVEIVEEEPVRVDPNGGIWISFRIRYPDGKPQEFQIPISAGGS [r8_449_TrROS] | 2.62 ± 0.057 | 2.88 ± 0.14 | 3.08 ± 0.07 |
| SAGGKVKVKLSPEMIEALKKAGIKEGQKEVTIEVKLKDGSVYRVTITYDKKTNKITIKVEKVEKLPPSAGGS [r16_497_TrROS_Hall] | 2.58 ± 0.16 | 3.88 ± 0.32 | 4.16 ± 0.1 |
| MYTIEVEVSTEPNPNTTTVTVRITSDDGTPVPEEVVKEAAEKIKKSGYPIDELEVKPLPDGSVEVTLKYSSS [r1_408_JUSTAS] | 3.31 ± 0.17 | 3.76 ± 0.11 | 4.05 ± 0.13 |
| SAGGSAGGSAGMVTETTVSRLPDGTVTTTTTEYVVHPDGSLEPVRERTTTTPVPPDVPAASAGGSAGGSAGG [r11_440_JUSTAS] | 0.396 ± 0.051 | 0.897 ± 0.037 | 1.142 ± 0.011 |
| SAGGSAGGPPDIVTLPIWIGGLKVEIMVYPDGSVTIMFRFPDWYYMITFPLKNGKIEIEWVPLKSAGGSAGG [r6_555_TrROS] | 3.16 ± 0.11 | 3.35 ± 0.22 | 3.54 ± 0.1 |
| SAGMVKVEVEYRPLPNGTVEVTVKLTITEPVPDEDGNLYYKTKTLTITVPTTSLSEAPKHVEEFIKKLSAGG [r19_218_TrMRF] | 2.52 ± 0.12 | 3.37 ± 0.19 | 4.03 ± 0.18 |
| SAGGSAGGKLPKNIEKIEFNKKTNIIKVKVKSLEDLKKLAEKLNFEIVSVEEKDGYIYIKIKKKSAGGSAGG [r6_380_TrROS_Hall] | 1.86 ± 0.038 | 2.47 ± 0.081 | 2.796 ± 0.027 |
| SAGVKPTPSGKNILEIDPETGKIRFVNNNGELFELPTGNDSLDAAIKEAVEKLGYPPDTPFNIDEIKIGSAG [r5_923_TrMRF] | 1.46 ± 0.044 | 1.54 ± 0.19 | 1.76 ± 0.065 |
| SAGGSAGGSAGGKILVITAKIEDIPEIIEAAKKLGIDSVIIDIPETKEKIIITKDSVKLISAGGSAGGSAGG [r7_564_TrMRF] | 1.54 ± 0.057 | 1.63 ± 0.14 | 1.76 ± 0.089 |
| SAGGSAGGSAGMTVTTITKTYPFDPNKSLSFTVPPGATITDKKTDADIAKGTVTVTVTVASAGGSAGGSAGG [r11_701_JUSTAS] | 0.345 ± 0.053 | 0.436 ± 0.13 | 0.355 ± 0.13 |
| SAGGMPIYARIVLYPPETGKFSELEIEFPEFESPDEVVEAAKEIAEKLGGPIARIEIYDPKTGKPFPDSAGG [r13_771_TrMRF] | 0.592 ± 0.094 | 0.314 ± 0.27 | 0.281 ± 0.083 |
| SAGGSAGGSAGKEKTITVLLEVDGYLVVAEVKLNEDGSLEITSVKVIKLPKPKPSPEALKSAGGSAGGSAGG [r11_843_TrROS_Hall] | 1.07 ± 0.048 | 0.907 ± 0.21 | 0.516 ± 0.033 |

| Sequence | folding stability dG unfold [1] [kcal/mol] | folding stability dG unfold [2] [kcal/mol] | folding stability dG unfold [3] [kcal/mol] |
| --- | --- | --- | --- |
| SAGGSAGGSAGLTFTLPDGTKITIETLEDGSVKIKIETLTPDGKPLEAEFVIPGSHPDEDSAGGSAGGSAGG [r17_471_TrMRF] | 3.2 ± 0.15 | 3.58 ± 0.13 | 3.76 ± 0.14 |
| SAGGSAGGSAGGMIIKINGKYYKIKKIEKNPNGKYTITTENGKKYEFKNVKIFSEEELKSAGGSAGGSAGGS [r10_1151_TrROS_Hall] | 3.05 ± 0.18 | 3.86 ± 0.18 | 4.19 ± 0.061 |
| SAGGSASAPVPTSVSVSVSSDPASGLTTIPTTVTYNGKTFPMSVTTTPSGTVVTKVGGSTFTVPAASAGGSA [r15_507_JUSTAS] | 0.0583 ± 0.075 | -0.0606 ± 0.077 | -0.286 ± 0.11 |
| SAGGSAGGSAGMKPGETYLVRIRVKVDGKWYEKEVKFKSLEELKKAGIENIEEIEIRKLPSAGGSAGGSAGG [r17_290_TrROS_Hall] | 1.99 ± 0.033 | 2.47 ± 0.16 | 2.72 ± 0.075 |
| SSSVVESSYDPSTGTLTVTVSYDFPPAPPAAATSSTTPVGSNSYTGSGSYTSPAGASSLSSTATGPPTLSSA [r9_780_JUSTAS] | 1.43 ± 0.031 | 1.37 ± 0.048 | 1.15 ± 0.054 |
| SAGGMTIFLPLENKEEVIEKLKKEGYKPVEVKEEGDVVTIKVEKKKDEKKEEITIVFYPPSKPEEPVSAGGS [r8_307_JUSTAS] | 2.77 ± 0.14 | 2.68 ± 0.1 | 2.59 ± 0.085 |
| SAGGSAGGSEVKTKVTLKREDPGSASTSTVDLPKEEAEKLIKEGKEIKLPSGKKASFTKVVPESAGGSAGGS [r12_432_JUSTAS] | -0.195 ± 0.11 | -0.148 ± 0.2 | -0.18 ± 0.24 |
| RVEVLENGEVIAVFPAEFLADIPPDDPLLLTLTLTLPDGYRVYVTFYNLPDGTVVAIARVEPVEVGPELAAS [r1_394_TrMRF] | 3.32 ± 0.14 | 4.22 ± 0.12 | 4.46 ± 0.066 |
| SAGGSAGGSAGVTIPDPGEEELRKALEAGREVRVAFPESGKVVLVEGPGPELGEEPEPAASAGGSAGGSAGG [r11_94_JUSTAS] | -0.619 ± 0.093 | 0.275 ± 0.075 | 0.589 ± 0.012 |
| SAGGKSVHIPGLSFEDLRDLIRNLPEPVTIHIEMPMRYPMYKYENGKPKEWQRQEMPMTSTFKIPPDDSAGG [r13_632_TrROS] | -1.01 ± 0.47 | -0.565 ± 0.23 | -0.522 ± 0.36 |
| SAGGSAVPAEAKKKVFLKPVKVNIPLPGNYEIVEIDPKTGKIVIKVPGSSKTLVVDLKSGKVYEFGSAGGSA [r15_452_TrMRF] | 1.19 ± 0.061 | 1.51 ± 0.14 | 1.78 ± 0.085 |
| SAGGSSMKTSETTDPANGTPVRVETSIDPATNKVTTTVTTPDGTTVGSGTITIPPESSVTTTTTTTTPASAG [r5_747_JUSTAS] | 0.793 ± 0.079 | 1.21 ± 0.11 | 1.49 ± 0.091 |
| SAGGLYKKDPDGQYVKPVPKVPPIPIEIKFPNGVEVKIEIYPYSNHITIEYTGPNPELANELIQEIIQSAGG [r13_701_TrROS] | 0.425 ± 0.091 | 0.702 ± 0.19 | 0.624 ± 0.2 |
| SAGGSAGGSAGGDSVQIEFPDNGMTITINPNNGPISIMEPDGKKKTYPVDSPEEALDAISAGGSAGGSAGGS [r10_849_TrROS] | 0.221 ± 0.027 | 1.14 ± 0.061 | 1.42 ± 0.042 |
| SAGGSAGGSAGGSSSVSVDTDPETGLITVTTYSSSGGVTVTLYEKPPDGSLTPVSTTAVSAGGSAGGSAGGS [r4_106_JUSTAS] | 1.08 ± 0.045 | 1.01 ± 0.046 | 0.844 ± 0.07 |
| SAGGSAGGSAGMRKYTWPFRIPLGGKPFEIRVEMEYDPSSGKHRIEITPEAKDLIKKKIFSAGGSAGGSAGG [r11_91_TrROS] | 0.59 ± 0.069 | 0.875 ± 0.058 | 0.839 ± 0.088 |
| SAGGKTITLPNGITITVNEDGTVTVTVTVDGKTLTVTVKVDSLEEALAAILEELRRLLKPPEVTVVKPSAGG [r13_896_TrROS_Hall] | 2.52 ± 0.097 | 3.07 ± 0.17 | 3.43 ± 0.13 |
| SAGGSAGGSAGGGMSLSYTVTTSTTVVPAPDGVTVLHPTTTTFPGGPTTTTTTVTVEPAGSAGGSAGGSAGG [r7_701_JUSTAS] | 0.872 ± 0.021 | 0.409 ± 0.051 | -0.855 ± 0.12 |
| SAGGSAGGNVLIPKSKLEEFLKNIPFEVLVLNPENPRLEIARVEADDIFVDDDYALILLTVSNDSAGGSAGG [r6_753_TrMRF] | 1 ± 0.032 | 0.742 ± 0.12 | 0.221 ± 0.18 |
| SAGGSAGGSSMPIYTVTVTYSDGTVRTYELTPEEIEAFAAEVPDAEVTELPPGKVEVTVKIPASAGGSAGGS [r20_231_JUSTAS] | 2.01 ± 0.096 | 2.33 ± 0.07 | 2.49 ± 0.027 |
| SAGGSAGGSMVKTFPESEPGERVTRELILTPDSIEIVETVVKTDPATGKPVEEVLLRRSTLPLSAGGSAGGS [r12_70_JUSTAS] | -0.747 ± 0.4 | -0.353 ± 0.29 | -0.315 ± 0.41 |
